# According to the supplement of paper PMC9732359:
# ± gives the uncertainty stated by the source.
# Experiment: protein stability index of a GFP-peptide fusion (yeast GPS) (PSI 1-4); higher = more stable; sorted into four equal gates, so the index is relative within each strain
# How it was run: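 Sequencing reads from sorted gates were used to score each peptide. The library consisted of tiled 17-residue yeast protein peptides fused downstream of GFP on a Cherry-expressing plasmid, pooled and carried in yeast. Mid-log cultures in leucine-free medium were split into four equal gates by GFP/Cherry ratio, and each gate's plasmids were PCR-amplified and Illumina-sequenced. The protein stability index adds up, over all gates, the read frequency multiplied by the gate number.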
Sequence,protein stability index (doa10∆),protein stability index (pdr5∆),protein stability index (san1∆),protein stability index (ubr1∆)
LEFSALSAADIVAQSEV [RPO31],3.01 ± 0.093,3.13 ± 0.075,3.1 ± 0.071,3.17 ± 0.059
TTVYRYSAAKKIPDTYT [YAR002W/NUP60],1.34 ± 0.087,2.07 ± 0.094,1.42 ± 0.14,1.45 ± 0.077
NDILDELLCGMANKEWR [ECM29],2.37 ± 0.14,1.47 ± 0.098,2.72 ± 0.15,1.6 ± 0.061
LQQQQQVVTTVASQSPH [SNF6],1.81 ± 0.08,1.92 ± 0.074,2.03 ± 0.11,2.25 ± 0.049
EHKPVSPDKIGTFTADY [SSN2],2.98 ± 0.071,3.15 ± 0.051,2.9 ± 0.058,3.09 ± 0.048
NVLNQINQIFSPEEQRS [GAL11],2.83 ± 0.045,2.93 ± 0.035,2.91 ± 0.039,2.81 ± 0.038
ATTSVMMVNNQTMQLIK [SRB6],3.09 ± 0.16,2.1 ± 0.17,2.12 ± 0.1,–
HTPMVNFESISARSSVH [SRB8],2.08 ± 0.043,1.97 ± 0.032,1.79 ± 0.051,2.12 ± 0.025
LLLITHHSWSQSDLEII [ARP9],2.36 ± 0.08,1.68 ± 0.048,1.76 ± 0.075,1.87 ± 0.068
VLKKKNIQKKQPAKEKG [RRP6],3 ± 0.085,3.03 ± 0.067,3.09 ± 0.042,3.22 ± 0.044
GEENRVRFIGDSVAAIG [QCR2],3.3 ± 0.15,2.76 ± 0.18,–,3 ± 0.24
LLLKKIIKDYVLDIVPG [SRB4],2.74 ± 0.094,2.52 ± 0.084,2.33 ± 0.1,2.71 ± 0.073
DFDESLKYLDDLKAQFQ [RPN9],3.02 ± 0.15,3.17 ± 0.075,3.12 ± 0.098,3.11 ± 0.081
QLVEITEQIKMRILSND [SRB8],2.49 ± 0.045,2.45 ± 0.043,2.44 ± 0.043,2.48 ± 0.034
CIECQPKAMTDTDNECV [HRT1],3.26 ± 0.097,3.25 ± 0.093,2.94 ± 0.11,3.32 ± 0.062
QNPLPTRFEVELEFIQS [SOH1],2.38 ± 0.083,2.39 ± 0.073,2.29 ± 0.084,2.83 ± 0.078
EKDLEHWLQLAKGVYRP [POP1],2.64 ± 0.072,3 ± 0.067,3.15 ± 0.041,3.1 ± 0.064
VHDLNKYKSNTNNMEKI [SMC2],3.46 ± 0.17,3.58 ± 0.14,3.02 ± 0.15,3.47 ± 0.24
LFLYKELVKAHLGERAA [RPC82],2.72 ± 0.086,2.96 ± 0.09,2.88 ± 0.061,2.77 ± 0.11
GIVETNRPDNKNAQYHL [RPN7],3.17 ± 0.11,3.21 ± 0.13,3.4 ± 0.069,3.06 ± 0.054
HPQDFGNPGRIRVLFKE [SEC65],2.91 ± 0.077,2.94 ± 0.11,3.13 ± 0.065,3.11 ± 0.061
QADLQAMDRAHRIGQKK [ISW2],–,–,3.14 ± 0.23,–
KNLERLRGEYNDLQSET [SMC4],3.33 ± 0.2,3.4 ± 0.083,3.25 ± 0.067,2.9 ± 0.06
FPGKPVDVQAPTDDKTL [YOR098C/NUP1],2.78 ± 0.068,3.02 ± 0.1,2.93 ± 0.089,2.75 ± 0.071
SNMILGSVELSTGDYTF [YML103C/NUP188],2.48 ± 0.055,2.35 ± 0.065,2.16 ± 0.077,2.43 ± 0.037
QFDIQSPLYMDTETFDT [YML103C/NUP188],3.11 ± 0.093,2.88 ± 0.064,3.02 ± 0.063,3.28 ± 0.06
VGACTDEEMTISQKLHD [RRP43],3.14 ± 0.1,3.04 ± 0.089,3.04 ± 0.084,3.12 ± 0.059
